From patent US20250171512A1 come the findings set out here.

Chain of FGF21 Q201 deleted (SEQ ID NO: 62) (Q9NSA1 other isoform, or with tags, fused parts or gaps): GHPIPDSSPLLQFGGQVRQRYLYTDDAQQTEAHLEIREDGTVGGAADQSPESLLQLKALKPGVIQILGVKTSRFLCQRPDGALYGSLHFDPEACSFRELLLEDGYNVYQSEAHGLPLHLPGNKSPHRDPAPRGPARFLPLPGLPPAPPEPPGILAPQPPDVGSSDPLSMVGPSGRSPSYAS
Chain of FGF21 S204 deleted (SEQ ID NO: 65) (Q9NSA1 other isoform, or with tags, fused parts or gaps): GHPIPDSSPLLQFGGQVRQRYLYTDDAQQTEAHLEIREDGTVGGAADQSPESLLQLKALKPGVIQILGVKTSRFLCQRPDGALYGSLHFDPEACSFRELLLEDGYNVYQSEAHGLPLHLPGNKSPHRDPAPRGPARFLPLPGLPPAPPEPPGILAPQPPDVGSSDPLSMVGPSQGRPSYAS
Chain of FGF21 V197 deleted, S201 deleted (SEQ ID NO: 69) (Q9NSA1 other isoform, or with tags, fused parts or gaps): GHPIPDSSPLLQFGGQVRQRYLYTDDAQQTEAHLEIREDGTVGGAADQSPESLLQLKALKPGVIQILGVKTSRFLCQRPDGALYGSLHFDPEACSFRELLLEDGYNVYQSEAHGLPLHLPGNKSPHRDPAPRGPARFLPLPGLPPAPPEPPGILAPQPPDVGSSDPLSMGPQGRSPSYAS
Chain of FGF21 V197 deleted (SEQ ID NO: 34) (Q9NSA1 other isoform, or with tags, fused parts or gaps): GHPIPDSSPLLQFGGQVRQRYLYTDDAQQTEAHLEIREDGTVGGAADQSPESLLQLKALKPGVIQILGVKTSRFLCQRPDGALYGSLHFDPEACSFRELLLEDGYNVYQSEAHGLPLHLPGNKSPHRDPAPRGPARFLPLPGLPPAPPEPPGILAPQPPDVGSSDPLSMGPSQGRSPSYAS
Chain of FGF21 GGGGS inserted between G198 and P199 (SEQ ID NO: 15) (Q9NSA1 other isoform, or with tags, fused parts or gaps): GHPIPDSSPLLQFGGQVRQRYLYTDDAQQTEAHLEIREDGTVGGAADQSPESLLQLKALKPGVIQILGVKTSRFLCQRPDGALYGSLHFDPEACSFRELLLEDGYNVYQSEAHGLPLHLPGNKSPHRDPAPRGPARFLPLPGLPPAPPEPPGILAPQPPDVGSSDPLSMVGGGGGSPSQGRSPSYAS
Chain of FGF21 P205 deleted (SEQ ID NO: 66) (Q9NSA1 other isoform, or with tags, fused parts or gaps): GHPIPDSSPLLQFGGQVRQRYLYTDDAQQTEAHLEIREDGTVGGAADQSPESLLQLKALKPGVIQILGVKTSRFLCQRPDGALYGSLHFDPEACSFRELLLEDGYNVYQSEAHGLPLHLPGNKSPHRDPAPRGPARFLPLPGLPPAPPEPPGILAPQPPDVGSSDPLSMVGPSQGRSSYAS
Chain of FGF21 G189 deleted (SEQ ID NO: 55) (Q9NSA1 other isoform, or with tags, fused parts or gaps): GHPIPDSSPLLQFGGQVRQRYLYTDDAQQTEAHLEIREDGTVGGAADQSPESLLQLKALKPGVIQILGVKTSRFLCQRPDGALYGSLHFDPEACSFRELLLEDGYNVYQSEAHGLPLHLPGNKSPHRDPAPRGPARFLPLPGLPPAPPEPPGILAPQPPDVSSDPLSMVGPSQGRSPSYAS
Chain of FGF21 G198 deleted (SEQ ID NO: 29) (Q9NSA1 other isoform, or with tags, fused parts or gaps): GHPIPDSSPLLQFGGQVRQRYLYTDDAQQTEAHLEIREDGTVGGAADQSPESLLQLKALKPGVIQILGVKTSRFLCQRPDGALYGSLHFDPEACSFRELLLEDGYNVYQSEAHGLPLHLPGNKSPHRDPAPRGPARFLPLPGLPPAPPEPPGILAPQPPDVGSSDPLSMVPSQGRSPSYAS
Chain of FGF21 G198 deleted, S200 deleted (SEQ ID NO: 74) (Q9NSA1 other isoform, or with tags, fused parts or gaps): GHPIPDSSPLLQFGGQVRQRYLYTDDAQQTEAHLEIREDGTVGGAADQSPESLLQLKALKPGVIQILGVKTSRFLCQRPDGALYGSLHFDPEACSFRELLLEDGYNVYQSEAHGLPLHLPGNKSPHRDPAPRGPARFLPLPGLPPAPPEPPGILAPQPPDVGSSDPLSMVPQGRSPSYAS
Chain of FGF21 D187 deleted (SEQ ID NO: 57) (Q9NSA1 other isoform, or with tags, fused parts or gaps): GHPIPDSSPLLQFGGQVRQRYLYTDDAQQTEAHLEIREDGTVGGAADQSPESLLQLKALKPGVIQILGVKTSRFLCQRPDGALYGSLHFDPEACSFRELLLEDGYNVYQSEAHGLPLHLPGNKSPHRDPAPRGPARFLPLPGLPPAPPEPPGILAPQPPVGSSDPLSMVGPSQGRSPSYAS
Chain of FGF21 P199 deleted (SEQ ID NO: 11) (Q9NSA1 other isoform, or with tags, fused parts or gaps): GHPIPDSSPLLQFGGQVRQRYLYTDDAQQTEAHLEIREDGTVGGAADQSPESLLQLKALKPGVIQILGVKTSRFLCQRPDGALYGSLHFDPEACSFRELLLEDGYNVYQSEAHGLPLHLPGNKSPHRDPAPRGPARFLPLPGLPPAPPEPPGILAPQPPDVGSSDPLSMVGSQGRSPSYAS
Chain of FGF21 G202 deleted (SEQ ID NO: 63) (Q9NSA1 other isoform, or with tags, fused parts or gaps): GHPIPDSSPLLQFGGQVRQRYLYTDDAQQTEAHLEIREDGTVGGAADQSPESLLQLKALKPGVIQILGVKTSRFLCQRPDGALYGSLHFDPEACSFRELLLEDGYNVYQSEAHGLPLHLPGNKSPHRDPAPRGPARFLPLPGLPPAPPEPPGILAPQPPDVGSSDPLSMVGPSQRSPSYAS
Chain of FGF21 R203 deleted (SEQ ID NO: 64) (Q9NSA1 other isoform, or with tags, fused parts or gaps): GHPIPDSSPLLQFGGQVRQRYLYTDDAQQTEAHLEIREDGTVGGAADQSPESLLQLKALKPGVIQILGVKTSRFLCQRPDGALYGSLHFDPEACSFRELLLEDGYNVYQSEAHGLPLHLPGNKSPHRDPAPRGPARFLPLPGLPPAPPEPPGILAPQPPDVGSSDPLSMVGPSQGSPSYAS
Chain of FGF21 Y207 deleted (SEQ ID NO: 68) (Q9NSA1 other isoform, or with tags, fused parts or gaps): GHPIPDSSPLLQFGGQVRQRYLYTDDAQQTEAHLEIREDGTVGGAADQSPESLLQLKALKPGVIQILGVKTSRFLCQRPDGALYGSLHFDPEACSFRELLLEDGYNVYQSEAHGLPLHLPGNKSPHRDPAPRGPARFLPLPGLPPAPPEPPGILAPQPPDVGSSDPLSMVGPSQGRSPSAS
Chain of FGF21 P186 deleted (SEQ ID NO: 58) (Q9NSA1 other isoform, or with tags, fused parts or gaps): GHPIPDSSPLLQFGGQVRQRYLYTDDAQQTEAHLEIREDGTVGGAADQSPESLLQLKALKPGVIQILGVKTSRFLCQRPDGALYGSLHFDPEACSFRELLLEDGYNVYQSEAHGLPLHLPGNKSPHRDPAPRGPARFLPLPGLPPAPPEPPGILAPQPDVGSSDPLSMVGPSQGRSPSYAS
Chain of FGF21, human (SEQ ID NO: 2), with N-terminal tag (Q9NSA1 29-209 L174P): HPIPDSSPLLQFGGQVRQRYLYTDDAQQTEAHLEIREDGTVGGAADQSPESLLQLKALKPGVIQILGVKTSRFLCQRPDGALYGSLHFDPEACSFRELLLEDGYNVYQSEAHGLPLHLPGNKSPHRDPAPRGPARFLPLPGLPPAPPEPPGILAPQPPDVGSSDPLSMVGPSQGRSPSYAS

In this experiment the target is human FGFR1c together with human beta-Klotho (KLB), stably expressed on CHO Flp-In cells (human) (UniProt P11362). Put plainly: cell-based or functional assay.
Chain of human FGFR1c together with human beta-Klotho (KLB), stably expressed on CHO Flp-In cells (human) (P11362 22-822, chain 1 of 2): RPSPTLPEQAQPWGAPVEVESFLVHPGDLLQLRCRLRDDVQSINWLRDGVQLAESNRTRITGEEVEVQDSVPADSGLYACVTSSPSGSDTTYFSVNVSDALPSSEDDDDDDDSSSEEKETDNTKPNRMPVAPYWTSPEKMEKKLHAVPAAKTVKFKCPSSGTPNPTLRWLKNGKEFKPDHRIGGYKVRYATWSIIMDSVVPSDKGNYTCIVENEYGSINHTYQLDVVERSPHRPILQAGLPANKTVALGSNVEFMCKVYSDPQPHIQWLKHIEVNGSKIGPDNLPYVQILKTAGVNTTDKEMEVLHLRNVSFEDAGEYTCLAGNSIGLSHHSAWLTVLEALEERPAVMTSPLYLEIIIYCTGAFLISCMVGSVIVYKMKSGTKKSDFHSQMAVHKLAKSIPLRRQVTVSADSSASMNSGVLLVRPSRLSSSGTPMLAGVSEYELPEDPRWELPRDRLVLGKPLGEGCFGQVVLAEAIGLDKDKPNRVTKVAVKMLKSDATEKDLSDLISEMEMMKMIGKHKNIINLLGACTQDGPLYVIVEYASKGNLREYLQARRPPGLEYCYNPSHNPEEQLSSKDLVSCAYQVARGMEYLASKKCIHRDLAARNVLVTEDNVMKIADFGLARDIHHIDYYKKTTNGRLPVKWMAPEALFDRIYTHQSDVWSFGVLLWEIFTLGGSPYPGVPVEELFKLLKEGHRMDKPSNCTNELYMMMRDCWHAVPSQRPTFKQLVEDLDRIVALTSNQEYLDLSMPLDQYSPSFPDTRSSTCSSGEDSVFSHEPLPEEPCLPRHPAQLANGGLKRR
Chain of human FGFR1c together with human beta-Klotho (KLB), stably expressed on CHO Flp-In cells (human) (Q86Z14 whole entry, chain 2 of 2, further chain): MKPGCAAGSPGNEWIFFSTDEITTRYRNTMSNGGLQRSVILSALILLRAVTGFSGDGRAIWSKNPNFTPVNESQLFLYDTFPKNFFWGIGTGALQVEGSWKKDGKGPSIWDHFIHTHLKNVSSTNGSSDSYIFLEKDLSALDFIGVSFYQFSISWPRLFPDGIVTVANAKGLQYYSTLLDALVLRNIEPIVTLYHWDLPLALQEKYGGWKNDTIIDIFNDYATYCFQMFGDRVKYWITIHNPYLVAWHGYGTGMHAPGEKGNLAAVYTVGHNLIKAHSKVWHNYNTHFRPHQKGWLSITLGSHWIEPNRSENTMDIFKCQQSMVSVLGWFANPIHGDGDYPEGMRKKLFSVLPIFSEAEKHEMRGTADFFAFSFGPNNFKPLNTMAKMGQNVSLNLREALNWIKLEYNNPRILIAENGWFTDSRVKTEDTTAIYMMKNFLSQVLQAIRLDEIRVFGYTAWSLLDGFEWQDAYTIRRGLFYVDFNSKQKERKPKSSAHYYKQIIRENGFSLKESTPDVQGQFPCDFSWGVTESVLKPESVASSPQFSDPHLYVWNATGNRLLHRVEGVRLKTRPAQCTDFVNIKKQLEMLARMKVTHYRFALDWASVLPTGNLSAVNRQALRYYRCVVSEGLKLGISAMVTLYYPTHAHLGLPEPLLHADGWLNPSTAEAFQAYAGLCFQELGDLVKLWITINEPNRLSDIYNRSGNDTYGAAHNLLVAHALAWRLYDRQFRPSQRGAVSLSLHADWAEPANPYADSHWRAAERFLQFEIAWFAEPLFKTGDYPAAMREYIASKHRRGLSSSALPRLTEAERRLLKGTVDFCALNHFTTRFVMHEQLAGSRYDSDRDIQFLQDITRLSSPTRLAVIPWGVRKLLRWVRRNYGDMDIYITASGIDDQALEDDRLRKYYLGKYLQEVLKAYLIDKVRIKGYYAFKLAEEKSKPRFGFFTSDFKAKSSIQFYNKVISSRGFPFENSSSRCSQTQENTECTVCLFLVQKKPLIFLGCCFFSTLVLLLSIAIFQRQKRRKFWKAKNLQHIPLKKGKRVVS
“FGF21 R47C, P174C (SEQ ID NO: 90) (from UniProt Q9NSA1 29-209) (ligand)” had a pERK ICW EC50 of 14.5 nmol/L.
In the case of “FGF21 Q55C, G148C (SEQ ID NO: 93) (from UniProt Q9NSA1 29-209) (ligand)” it was 0.48 nmol/L; in that of “FGF21 P199T (SEQ ID NO: 23) (from UniProt Q9NSA1 29-209) (ligand)”, 1.66 nmol/L.
In the case of “FGF21 Q55C, N149C, G198Y (SEQ ID NO: 47) (from UniProt Q9NSA1 29-209) (ligand)” it was 0.58 nmol/L; in that of “FGF21 G198 deleted (SEQ ID NO: 29) (from UniProt Q9NSA1 29-209) (ligand)”, 41.6 nmol/L.
In the case of “FGF21 Q55G, Q56C, L146C (SEQ ID NO: 96) (from UniProt Q9NSA1 29-209) (ligand)” it was 163 nmol/L.
For the substance “FGF21 E62C, E78C (SEQ ID NO: 101) (from UniProt Q9NSA1 29-209) (ligand)”, the pERK ICW EC50 came out at 2.44 nmol/L.
In turn, “FGF21 Q55G, Q56C, L146C, P147-R159 deleted and replaced by GGSGGS (SEQ ID NO: 98) (from UniProt Q9NSA1 29-209) (ligand)” showed a pERK ICW EC50 of 155 nmol/L.
In the case of “FGF21 G198K (SEQ ID NO: 19) (from UniProt Q9NSA1 29-209) (ligand)” it was 1.81 nmol/L.
Consider “FGF21 V69C, L110C (SEQ ID NO: 113) (from UniProt Q9NSA1 29-209) (ligand)”, for which the pERK ICW EC50 turned out to be 11.7 nmol/L.
For the substance “FGF21 G198 deleted, P199L (SEQ ID NO: 32) (from UniProt Q9NSA1 29-209) (ligand)”, the pERK ICW EC50 was 4.8 nmol/L.
In the case of “FGF21 E62C, S79C (SEQ ID NO: 102) (from UniProt Q9NSA1 29-209) (ligand)” it was 0.55 nmol/L; in that of “FGF21 V197-R203 deleted and replaced by GLNSMV (SEQ ID NO: 28) (from UniProt Q9NSA1 29-209) (ligand)”, 78.1 nmol/L.
In the case of “FGF21 P77C, K97C (SEQ ID NO: 117) (from UniProt Q9NSA1 29-209) (ligand)” it was 8.76 nmol/L.
In the case of “FGF21 G198R (SEQ ID NO: 18) (from UniProt Q9NSA1 29-209) (ligand)” it was 1.15 nmol/L; in that of “FGF21, human (SEQ ID NO: 2), with N-terminal tag (from UniProt Q9NSA1 29-209) (ligand)”, 1.03 nmol/L.
In the case of “FGF21 G189 deleted (SEQ ID NO: 55) (from UniProt Q9NSA1 29-209) (ligand)”, the pERK ICW EC50 was found to be 76.2 nmol/L.
Substance “FGF21 P186 deleted (SEQ ID NO: 58) (from UniProt Q9NSA1 29-209) (ligand)” gave a pERK ICW EC50 of 0.87 nmol/L.
In the case of “FGF21 Q55C, G148C, N149-R159 deleted and replaced by GSGS (SEQ ID NO: 94) (from UniProt Q9NSA1 29-209) (ligand)” it was 8.19 nmol/L; in that of “FGF21 GGGGS inserted between G198 and P199 (SEQ ID NO: 15) (from UniProt Q9NSA1 29-209) (ligand)”, 3.07 nmol/L.
In turn, “FGF21 G67C, R100C (SEQ ID NO: 112) (from UniProt Q9NSA1 29-209) (ligand)” came in with a pERK ICW EC50 of 23.3 nmol/L.
Consider “FGF21 G202 deleted (SEQ ID NO: 63) (from UniProt Q9NSA1 29-209) (ligand)”, for which the pERK ICW EC50 was found to be 8.18 nmol/L.
In turn, “FGF21 P205 deleted (SEQ ID NO: 66) (from UniProt Q9NSA1 29-209) (ligand)” yielded a pERK ICW EC50 of 27.4 nmol/L.
In turn, “FGF21 Q82C, L94C (SEQ ID NO: 122) (from UniProt Q9NSA1 29-209) (ligand)” registered a pERK ICW EC50 of 5.57 nmol/L.
In the case of “FGF21 S137C, H140C (SEQ ID NO: 84) (from UniProt Q9NSA1 29-209) (ligand)” it was 3.87 nmol/L.
In the case of “FGF21 A72C, S79C (SEQ ID NO: 87) (from UniProt Q9NSA1 29-209) (ligand)” it was 11.8 nmol/L; in that of “FGF21 M196V, V197M (SEQ ID NO: 13) (from UniProt Q9NSA1 29-209) (ligand)”, 26.7 nmol/L; in that of “FGF21 G108C, L142C, P199 deleted (SEQ ID NO: 40) (from UniProt Q9NSA1 29-209) (ligand)”, 0.9 nmol/L.
The substance “FGF21 A72C, S79C, G108C, L142C (SEQ ID NO: 89) (from UniProt Q9NSA1 29-209) (ligand)” displayed a pERK ICW EC50 of 8.24 nmol/L.
In turn, “FGF21 H140C, L142C (SEQ ID NO: 82) (from UniProt Q9NSA1 29-209) (ligand)” gave a pERK ICW EC50 of 2.27 nmol/L.
Regarding “FGF21 V197D, G198V, P199D, S200H (SEQ ID NO: 26) (from UniProt Q9NSA1 29-209) (ligand)”, the pERK ICW EC50 came to 85.8 nmol/L.
Turning to “FGF21 E78C, T98C (SEQ ID NO: 118) (from UniProt Q9NSA1 29-209) (ligand)”, the pERK ICW EC50 amounted to 9.22 nmol/L.
In the case of “FGF21 P199Q, Q201P (SEQ ID NO: 10) (from UniProt Q9NSA1 29-209) (ligand)” it was 1.76 nmol/L; in that of “FGF21 V197 deleted (SEQ ID NO: 34) (from UniProt Q9NSA1 29-209) (ligand)”, 68.8 nmol/L.
In the case of “FGF21 A59C, G71C, P199 deleted (SEQ ID NO: 36) (from UniProt Q9NSA1 29-209) (ligand)” it was 1.16 nmol/L; in that of “FGF21 E62C, A72C (SEQ ID NO: 106) (from UniProt Q9NSA1 29-209) (ligand)”, 2.03 nmol/L; in that of “FGF21 V197 deleted, S201 deleted (SEQ ID NO: 69) (from UniProt Q9NSA1 29-209) (ligand)”, 98.7 nmol/L.
On to “FGF21 L146C, A162C (SEQ ID NO: 35) (from UniProt Q9NSA1 29-209) (ligand)”, for which the pERK ICW EC50 came out at 8.28 nmol/L.
In the case of “FGF21 Q201 deleted (SEQ ID NO: 62) (from UniProt Q9NSA1 29-209) (ligand)”, the pERK ICW EC50 was determined as 1.91 nmol/L.
Consider “FGF21 S195C, S200C (SEQ ID NO: 8) (from UniProt Q9NSA1 29-209) (ligand)”, for which the pERK ICW EC50 is 10.8 nmol/L.
As for “FGF21 S200 deleted (SEQ ID NO: 61) (from UniProt Q9NSA1 29-209) (ligand)”, the pERK ICW EC50 was determined as 1.17 nmol/L.
In the case of “FGF21 G198 deleted, P199F (SEQ ID NO: 31) (from UniProt Q9NSA1 29-209) (ligand)” it was 2.1 nmol/L.
Consider “FGF21 R124C, Q136C (SEQ ID NO: 115) (from UniProt Q9NSA1 29-209) (ligand)”, for which the pERK ICW EC50 is 22.6 nmol/L.
In the case of “FGF21 V197E (SEQ ID NO: 14) (from UniProt Q9NSA1 29-209) (ligand)” it was 31.4 nmol/L; in that of “FGF21 P199G (SEQ ID NO: 21) (from UniProt Q9NSA1 29-209) (ligand)”, 1.65 nmol/L; in that of “FGF21 S76C, S79C, G198Y (SEQ ID NO: 39) (from UniProt Q9NSA1 29-209) (ligand)”, 0.15 nmol/L.
“FGF21 R203 deleted (SEQ ID NO: 64) (from UniProt Q9NSA1 29-209) (ligand)” returned a pERK ICW EC50 of 6.69 nmol/L.
In the case of “FGF21 Q55G, Q56C, L146C, P147-R159 deleted and replaced by GSGS (SEQ ID NO: 97) (from UniProt Q9NSA1 29-209) (ligand)” it was 114 nmol/L.
The substance “FGF21 G198 deleted, S200 deleted (SEQ ID NO: 74) (from UniProt Q9NSA1 29-209) (ligand)” had a pERK ICW EC50 of 77.8 nmol/L.
In the case of “FGF21 G108C, L142C (SEQ ID NO: 86) (from UniProt Q9NSA1 29-209) (ligand)” it was 1.48 nmol/L.
In the case of “FGF21 I63C, T98C (SEQ ID NO: 111) (from UniProt Q9NSA1 29-209) (ligand)”, the pERK ICW EC50 came out at 87.6 nmol/L.
In the case of “FGF21 L80C, V96C (SEQ ID NO: 119) (from UniProt Q9NSA1 29-209) (ligand)” it was 17.9 nmol/L; in that of “FGF21 D187 deleted (SEQ ID NO: 57) (from UniProt Q9NSA1 29-209) (ligand)”, 86.1 nmol/L.
“FGF21 P199 deleted (SEQ ID NO: 11) (from UniProt Q9NSA1 29-209) (ligand)” registered a pERK ICW EC50 of 2.31 nmol/L.
“FGF21 Y207 deleted (SEQ ID NO: 68) (from UniProt Q9NSA1 29-206) (ligand)” displayed a pERK ICW EC50 of 7.14 nmol/L.
In the case of “FGF21 Q55C, N149C, P199 deleted (SEQ ID NO: 46) (from UniProt Q9NSA1 29-209) (ligand)” it was 1.7 nmol/L; in that of “FGF21 Q104C, S137C (SEQ ID NO: 107) (from UniProt Q9NSA1 29-209) (ligand)”, 1.83 nmol/L.
In the case of “FGF21 I63C, G112C (SEQ ID NO: 79) (from UniProt Q9NSA1 29-209) (ligand)” it was 5.05 nmol/L; in that of “FGF21 S200Q, Q201S (SEQ ID NO: 25) (from UniProt Q9NSA1 29-209) (ligand)”, 1.62 nmol/L; in that of “FGF21 P199R (SEQ ID NO: 22) (from UniProt Q9NSA1 29-209) (ligand)”, 0.95 nmol/L.
As for “FGF21 G198E (SEQ ID NO: 16) (from UniProt Q9NSA1 29-209) (ligand)”, the pERK ICW EC50 came to 4.53 nmol/L.
“FGF21 G198P, P199G (SEQ ID NO: 24) (from UniProt Q9NSA1 29-209) (ligand)”: the pERK ICW EC50 was determined as 10.8 nmol/L.
In the case of “FGF21 G198D (SEQ ID NO: 17) (from UniProt Q9NSA1 29-209) (ligand)” it was 4.94 nmol/L.
In the case of “FGF21 S204 deleted (SEQ ID NO: 65) (from UniProt Q9NSA1 29-209) (ligand)” it was 25.7 nmol/L; in that of “FGF21 Q55C, P147C, G198Y (SEQ ID NO: 45) (from UniProt Q9NSA1 29-209) (ligand)”, 3.6 nmol/L.
